Data published in patent publication US20250003951A1 (OXFORD UNIVERSITY INNOVATION, published 2025).

Experiments:
Experiment in all cases: cell-based or functional assay
[1] = target: T1, OX885-559 (human)
T1 peptide: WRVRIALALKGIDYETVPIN

[2] = target: T2, OX885-560 (human)
T2 peptide: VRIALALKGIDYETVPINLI

[3] = target: T3, OX289-284 (human)
T3 peptide: GETGMFSLSTIRGHQYATY

[4] = target: T4, OX289-009 (human)
T4 peptide: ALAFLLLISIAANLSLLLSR

[5] = target: T5, OX289-067 (human)
T5 peptide: VATFPVYTMVAIPIVCKD

[6] = target: T6, OX628-309 (human)
T6 peptide: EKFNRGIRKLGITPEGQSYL

[7] = target: T7, OX628-308 (human)
T7 peptide: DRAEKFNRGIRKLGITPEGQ

[8] = target: T8, OX289-040 (human)
T8 peptide: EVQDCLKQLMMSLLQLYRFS

B1: OX885 Peptides 559/560 clone 1 TCR (TCR, V domains shown)
V domain 1: GIQVEQSPPDLILQEGANSTLRCNFSDSVNNLQWFHQNPWGQLINLFYIPSGTKQNGRLSATTVATERYSLLYISSSQTTDSGVYFCAARRVDNNNDMRFGAGTRLTVKP
V domain 2: DARVTQTPRHKVTEMGQEVTMRCQPILGHNTVFWYRQTMMQGLELLAYFRNRAPLDDSGMPKDRFSAEMPDATLATLKIQPSEPRDSAVYFCASGLAQPQHFGDGTRLSILE
- Clone size (percent repertoire), IFNγ+ sorted T cells after peptide stimulation [1]: 96.5 % of repertoire
- Clone size (percent repertoire), IFNγ+ sorted T cells after peptide stimulation [2]: 96.5 % of repertoire

B2: OX289 Peptide 284 clone 1 TCR (TCR)
TCR alpha: RKEVEQDPGPFNVPEGATVAFNCTYSNSASQSFFWYRQDCRKEPKLLMSVYSSGNEDGRFTAQLNRASQYISLLIRDSKLSDSATYLCVVNKATSGTYKYIFGTGTRLKVLANIQNPDPAVYQLRD
TCR beta 1: AVVSQHPSWVICKSGTSVKIECRSLDFQATTMFWYRQFPKQSLMLMATSNEGSKATYEQGVEKDKFLINHASLTLSTLTVTSAHPEDSSFYICSARDREAAGYGYTFGSGTRLTVVEDLNKVFPPEVAVFEPS
TCR beta 2: AVVSQHPSWVICKSGTSVKIECRSLDFQATTMFWYRQFPKQSLMLMATSNEGSKATYEQGVEKDKFLINHASLTLSTLTVTSAHPEDSSFYICSARLAHSGTNTGELFFGEGSRLTVLEDLKNVFPPEVAVFEPS
- Clone size (percent repertoire), IFNγ+ sorted T cells after peptide stimulation [3]: 96 % of repertoire

B3: OX289 Peptide 9 clone 1 TCR (TCR, V domains shown)
V domain 1: RKEVEQDPGPFNVPEGATVAFNCTYSNSASQSFFWYRQDCRKEPKLLMSVYSSGNEDGRFTAQLNRASQYISLLIRDSKLSDSATYLCVVDFYTSGTYKYIFGTGTRLKVLA
V domain 2: GAVVSQHPSRVICKSGTSVKIECRSLDFQATTMFWYRQFPKQSLMLMATSNEGSKATYEQGVEKDKFLINHASLTLSTLTVTSAHPEDSSFYICSARDREAAGYGYTFGSGTRLTVVE
- Clone size (percent repertoire), IFNγ+ sorted T cells after peptide stimulation [4]: 91.1 % of repertoire

B4: OX289 Peptide 67 clone 1 TCR (TCR)
TCR alpha 1: QLLEQSPQFLSIQEGENLTVYCNSSSVFSSLQWYRQEPGEGPVLLVTVVTGGEVKKLKRLTFQFGDARKDSSLHITAAQPGDTGLYLCAGLDDKIIFGKGTRLHILPNIQNPDPAVYQLRD
TCR alpha 2: GIQVEQSPPDLILQEGANSTLRCNFSDSVNNLQWFHQNPWGQLINLFYIPSGTKQNGRLSATTVATERYSLLYISSSQTTDSGVYFCAVAGSNYQLIWGAGTKLIIKPDIQNPDPAVYQLRD
TCR beta: EAGVAQSPRYKIIEKRQSVAFWCNPISGHATLYWYQQILGQGPKLLIQFQNNGVVDDSQLPKDRFSAERLKGVDSTLKIQPAKLEDSAVYLCASSDPISGRGDEQFFGPGTRLTVLEDLKNVFPPEVAVFEPS
- Clone size (percent repertoire), IFNγ+ sorted T cells after peptide stimulation [5]: 81.1 % of repertoire

B5: OX885 Peptides OX628-308/309 clone 2 TCR (TCR, V domains shown)
V domain 1: AQSVTQLDSQVPVFEEAPVELRCNYSSSVSVYLFWYVQYPNQGLQLLLKYLSGSTLVKGINGFEAEFNKSQTSFHLRKPSVHISDTAEYFCAVSGVLTGGGNKLTFGTGTQLKVEL
V domain 2: DAGITQSPRYKITETGRQVTLMCHQTWSHSYMFWYRQDLGHGLRLIYYSAAADITDKGEVPDGYVVSRSKTENFPLTLESATRSQTSVYFCASSEGTVSNQPQHFGDGTRLSILE
- Clone size (percent repertoire), IFNγ+ sorted T cells after peptide stimulation [6]: 16.2 % of repertoire
- Clone size (percent repertoire), IFNγ+ sorted T cells after peptide stimulation [7]: 16.2 % of repertoire

B6: OX289 Peptide 40 clone 1 TCR (TCR, V domains shown)
V domain 1: NSVTQMEGPVTLSEEAFLTINCTYTATGYPSLFWYVQYPGEGLQLLLKATKADDKGSNKGFEATYRKETTSFHLEKGSVQVSDSAVYFCALIPTGGGNKLTFGTGTQLKVEL
V domain 2: AVVSQHPSWVICKSGTSVKIECRSLDFQATTMFWYRQFPKQSLMLMATSNEGSKATYEQGVEKDKFLINHASLTLSTLTVTSAHPEDSSFYICSARLAHSGTNTGELFFGEGSRLTVLE
- Clone size (percent repertoire), IFNγ+ sorted T cells after peptide stimulation [8]: 85.2 % of repertoire
